These results are taken from patent publication US11813311B2, “Treatment and prevention of metabolic diseases” (Singapore Health Services PTE LTD., priority 2019, dated 2023).

The test system of test [1] is WDF-fed mice. The test can be described thus: WDF diet-induced obesity/T2D model (Example 2). It is filed as in vivo, mouse. Here is the method:
Mice were injected intraperitoneally with 10 mg/kg of an antagonist anti-IL-11 antibody, an antagonist anti-IL-11Rα antibody, or an identical amount of isotype-matched IgG control antibody. The anti-IL-11 and anti-IL-11Rα antibodies bind to mouse IL-11 and mouse IL-11Rα respectively, and inhibit IL-11 mediated signalling.
In order to establish metabolic diseases such as obesity and T2D, mice were fed Western diet (D12079B, Research Diets), supplemented with 15% weight/volume fructose in drinking water (WDF) for 16 weeks, from 12 weeks of age.
Total body fat and lean mass measurements were performed every two weeks by EchoMRI analysis using 4in1 Body Composition Analyzer for Live Small Animals.
For fasting blood glucose measurements, mice were fasted for 6 hours prior to blood collection (via tail snip), and Accu-Chek blood glucose meter was used to obtain fasting glucose measurements.
For intraperitoneal glucose tolerance tests, mice were fasted for 6 h prior to being subjected to ipGTT. Basal fasting glucose was measured by tail snip using Accu-Chek blood glucose meter. 2 g/kg lean mass glucose was injected intraperitoneally, and glucose measurements were taken every 15 min for 2 hours. The area under the curve (AUC) was calculated, and plotted as bar graphs.
For histological analysis, pancreas samples were excised and fixed for 24 hours at RT in 4% neutral-buffered formalin (NBF), and stored in 30% sucrose. 5 μm cryosections were stained with either glucagon or insulin antibodies overnight, and visualized with ImmPRESS HRP IgG polymer detection kit (Vector Laboratories) with ImmPACT DAB Peroxidase Substrate (Vector Laboratories) according to standard protocols, and examined by light microscopy.

In test [2] the test system is WDF-fed mice. Kind of test: WDF NASH reversal model (Example 4). The format is in vivo, mouse. The following applies: WDF 16 weeks, then 10 mg/kg for 8 weeks on continued WDF. Here is the method:
FIGS. 21A to 21L. Inhibition of Il-11 signalling reverses NASH pathologies in preclinical models and HSC-to-myofibroblast transformation. (A) Schematic showing therapeutic dosing regime in NASH reversal experiment for data shown in (B-G). Mice were fed with WDF for 16 weeks to induce NASH and then treated with (10 mg/kg) X209 or IgG for 8 weeks while they were on continuous WDF feeding. (B) Total liver hydroxyproline content, the levels of (C) liver triglycerides, (D) serum ALT, (E), fasting blood glucose, (F) serum triglycerides, and (G) serum cholesterol in mice on NC and IgG- and X209-treated WDF (n≥5/group). (H) Schematic showing reversal experiment in which fibrosis was established by feeding mice HFMCD for 10 weeks and then replacing this with NC and initiating antibody (X203 and X209) therapy. Mice were euthanized at the indicated time points. (I) Total liver hydroxyproline content (dotted line represents the mean value of NC=0.93) and (J) relative mRNA expression of Mmp2/Timp1 at 1-, 3-, 6-weeks after concurrent metabolic intervention (diet switch) and X203, X209, or IgG treatment (n≥3/group). Quantification of ACTA2^+ve immunostaining (scale bars, 200 μm) following incubation (K) with TGFβ1 or (L) with PDGF, either prior to or after the addition of X203, X209, or IgG (n=5/group). (K-L) TGFβ1 (5 ng/ml), PDGF (20 ng/ml), IgG, X203 and, X209 (2 μg/ml). (B-G, K-L) Data are shown as box-and-whisker with median (middle line), 25th-75th percentiles (box) and min-max percentiles (whiskers); (I) data are shown as mean±s.d; (J) data are represented as line chart (mean) and transparencies indicate s.d. (B) Two-tailed Student's t-test (C-G,K-L) two-tailed, Tukey-corrected Student's t-test; (I-J) two-way ANOVA. FC: fold change; NC: normal chow; WDF: Western diet+15% (w/v) fructose; HFMCD: high fat methionine- and choline-deficient.
Ten week old male C57Bl/6J mice were fed Western diet (D12079B, Research Diets), supplemented with 15% weight/volume fructose in drinking water to mimic NAFLD/NASH like humans 17,18, whereas control mice received normal chow and tap water. Durations of diet and antibody therapies are described.
Mice were injected intraperitoneally with either antagonist anti-IL-11 antibody, antagonist anti-IL11RA antibody or an identical amount of IgG isotype control for the treatment durations outlined in the figures.
Mice were fasted for 6 h prior to blood collection (via tail snip) and Accu-Chek blood glucose meter was used to take fasting glucose measurements.

The target of test [3] is T1, mouse Il11ra1 (Mus musculus, UniProt Q64385).
T1 sequence (Q64385 24-432): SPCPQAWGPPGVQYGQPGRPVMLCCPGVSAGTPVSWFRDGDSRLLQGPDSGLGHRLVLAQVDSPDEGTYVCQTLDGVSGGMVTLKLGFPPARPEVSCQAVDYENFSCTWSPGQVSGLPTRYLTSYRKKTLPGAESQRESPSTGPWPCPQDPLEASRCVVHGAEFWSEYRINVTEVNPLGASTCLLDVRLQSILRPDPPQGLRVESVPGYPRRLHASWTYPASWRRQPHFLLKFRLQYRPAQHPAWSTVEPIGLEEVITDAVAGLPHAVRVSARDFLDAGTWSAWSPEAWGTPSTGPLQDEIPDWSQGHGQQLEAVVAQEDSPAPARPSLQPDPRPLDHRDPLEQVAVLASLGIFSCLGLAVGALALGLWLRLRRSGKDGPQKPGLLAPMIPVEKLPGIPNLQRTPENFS
The test can be described thus: Binding of X209 to mouse Il11ra1 (Octet). The following applies: Octet system. The procedure:
Binding of X209 to human IL11RA was measured on Biacore T200 (GE Healthcare). X209 was immobilized onto an anti-mouse capture chip. Interaction assays were performed with HEPES-buffered saline pH 7.4 containing 0.005% P20 and 0.5% BSA. A concentration range (1.56 nM to 100 nM) of the analyte (human IL11 RA) was injected over X209 and reference surfaces at a flow rate of 40 μl min^−1. Binding to mouse Il11ra1 was confirmed on Octet system (ForteBio) using a similar strategy. All sensograms were aligned and double-referenced^4. Affinity and kinetic constants were determined by fitting the corrected sensorgrams with 1:1 Langmuir model. The equilibrium binding constant KD was determined by the ratio of kd/ka.

B1: X209: mouse anti-mouse IL-11Rα IgG (IgG1κ), neutralising; VH SEQ ID NO:24, VL SEQ ID NO:25 (antibody, V domains shown)
VH: QVQLQQPGAELVRPGSSVKLSCKASGYTFTNYWMHWLKQRPVQGLEWIGNIGPSDSKTHYNQKFKDKATLTVDKSSSTAYMQLNSLTSEDSAVYYCARGDYVLFTYWGQGTLVTVSA
VL: DIVLTQSPATLSLSPGERATLSCRASQSISNNLHWYQQKSHEAPRLLIKYASQSISGIPARFSGSGSGTDFTLSFSSLETEDFAVYFCQQSYSWPLTFGQGTKLEIK
modifications: Enx209 VH; Enx209 VL
With B1, in test [1] (WDF-fed mice vs IgG control), the body weight entry is recorded as “significant reduction in body weight”, the “fasting blood glucose levels” value is reported as “significantly lower”, the fat mass entry was “significantly reduced fat mass” and the “glucose tolerance (ipGTT)” value is given as “significant improvement in glucose tolerance”. Also, in test [1] (WDF-fed mice vs IgG control), the lean mass entry is “increase in lean mass”, the serum cholesterol levels entry is reported as “significantly lower” and the serum triglyceride levels entry is on record as “significantly lower”. For the same molecule, in test [1] (treated from 8 to 16 weeks or from 16 to 24 weeks), the pancreas weight entry is “remarkable protection against WDF-induced loss of pancreas”. Further, in test [1] (treatment from 16 to 24 weeks), the “glucagon staining in pancreatic islets” value is recorded as “remarkably reduced”, the “insulin expression in the islets” value is listed as “improved” and the islet hyperplasia result is “remarkably reduced”. Also, in test [2], the “hepatic Erk activation” value was “inhibited”, the liver fibrosis result is given as “reversal”, the liver inflammation entry is given as “reversal” and the liver steatosis entry is recorded as “reversal”. In test [2], the “serum ALT levels” value is “reduction”, the serum cholesterol levels result is “reduction”, the serum glucose entry is reported as “reduction” and the serum triglycerides entry is recorded as “reduction”. Moreover, in test [3], the “Binding to mouse Il11ra1” value is given as “confirmed”.
